Test results as given in US20180127503A1 (EUREKA THERAPEUTICS, published 2018).

B1: ROR2-240 full length human IgG1 antibody (antibody, V domains shown)
VH: QITLKESGPELVKPTQTLTLTCTFSGFSLSTSGMSVSWIRQPPGKALEWLARIDWDDDKYYSTSLKTRLTISKDTSKNQVVLTMTNTDPVDTATYYCARGFYLAYGSYDSWGQGTLVTVSS
VL: QSALTQPASVSGSPGQSITISCTGTSGDVGGYNYVSWYQHHPGKAPKLIIYDVNKRPSGFSDRFSGSKSGNTASLTISGLQAEDEADYYCSSYTSTSTVFGGGTKLTVLG
notes: also called clone #240 IgG1
B2: ROR2-27 full length human IgG1 antibody (antibody, V domains shown)
VH: QVQLVESGAEVKKPGESLKISCKASGYSFSNYWIGWVRQMPGKGLEWMGIIYPDDSDTRYSPSFQGQVTISADKSISTAYLQWYSLKVADTAKYYCVRPRGAFDIWGQGTTVTVSS
VL: QSVLTQPPSVSGAPGQRVTISCTGSSSNIGAGHAVHWYQQLPGTAPKLLIYDNANRPSGVPDRFSGSQSGTSASLAITGLQTGDEADYYCGTWDDSPSAYVFGTGTKVTVLG
notes: also called clone #27; clone #027 IgG1
B3: ROR2-23 full length human IgG1 antibody (antibody, V domains shown)
VH: EVQLVQSGAEVKKPGESLKISCQGSGYRFSKYWIGWVRQMPGKGLEWMGIIYPGDSDTRYSPSFQGQVTISADKSISTAYLQWSSLKASDTAMYYCARSFSSFIYDYWGQGTLVTVSS
VL: ETTLTQSPGTLSVSPGERATLSCRASQSVSSNLAWYQQKRGQAPRLLIYGASTRATGIPVRFSGSGSGTEFTLTISRLEPEDFAVYYCQQYGRSPLTFGGGTKVDIKR
notes: The light chain of clone 023 is labelled kappa; also called clone #23; clone #023 IgG1
B4: ROR2-241 full length human IgG1 antibody (antibody, V domains shown)
VH: EVQLVQSGAEVKKPGASVKVSCKASGYTFTNYYIHWVRQAPGQGLEWMGIINPTSGRTRYAQRFQGRVTMTRDTSTNTVYMDLSSLRSEDTAMYYCARSGYYWGVNGDQWGQGTLVTVSS
VL: SYELTQPLSVSVALGQTARITCGGNNIGSKNVHWYQQKPGQAPVLVIYRDSNRPSGIPERFSGSNSGNTATLTISRAQAGDEADYYCQVWDSSIVVFGGGTKLTVLG

How the values were obtained:
[1] = target: T1, human ROR2 expressed on the cell surface (human, UniProt Q01974 34-943); assay: flow cytometry, SKNMM cells (neuroblastoma); set-up: unit not given here
T1 construct: Endogenous ROR2 of human tumour cell lines; also called cell surface ROR2; ROR2 on tumour cell lines
T1 sequence (Q01974 34-943 limits assumed): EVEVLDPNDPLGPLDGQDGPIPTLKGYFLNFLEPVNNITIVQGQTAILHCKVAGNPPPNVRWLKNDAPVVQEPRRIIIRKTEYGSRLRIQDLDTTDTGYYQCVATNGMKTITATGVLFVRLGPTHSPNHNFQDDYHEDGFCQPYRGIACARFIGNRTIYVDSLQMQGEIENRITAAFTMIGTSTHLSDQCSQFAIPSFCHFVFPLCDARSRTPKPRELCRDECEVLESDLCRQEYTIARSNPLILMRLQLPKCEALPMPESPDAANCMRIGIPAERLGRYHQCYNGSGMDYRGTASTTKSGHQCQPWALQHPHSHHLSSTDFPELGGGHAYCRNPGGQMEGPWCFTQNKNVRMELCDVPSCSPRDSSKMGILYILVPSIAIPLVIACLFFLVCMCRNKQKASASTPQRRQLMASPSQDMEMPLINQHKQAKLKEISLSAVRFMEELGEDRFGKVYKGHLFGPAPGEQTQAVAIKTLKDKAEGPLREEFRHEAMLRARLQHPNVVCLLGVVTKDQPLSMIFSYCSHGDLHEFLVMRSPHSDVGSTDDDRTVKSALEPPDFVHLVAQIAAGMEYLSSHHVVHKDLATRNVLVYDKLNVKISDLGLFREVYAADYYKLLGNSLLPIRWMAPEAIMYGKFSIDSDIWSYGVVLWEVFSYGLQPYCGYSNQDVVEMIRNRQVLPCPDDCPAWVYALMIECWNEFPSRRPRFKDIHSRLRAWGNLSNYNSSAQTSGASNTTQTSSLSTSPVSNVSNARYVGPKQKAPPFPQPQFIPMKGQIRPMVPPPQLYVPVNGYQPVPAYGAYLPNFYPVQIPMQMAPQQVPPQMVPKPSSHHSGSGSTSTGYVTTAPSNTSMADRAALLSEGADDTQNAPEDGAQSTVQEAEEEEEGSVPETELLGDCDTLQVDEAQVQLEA
Procedure: (§1) Human tumour cell lines were authenticated using short tandem repeat (STR) analysis. They were cultured in RPMI1640 (Cellgro) supplemented with 10% fetal bovine serum (FBS, Life Technologies) at 37° C. in a 5% CO₂ humidified incubator. They were harvested, washed in PBS and reacted with ROR2-IgG at 1 ug/10⁶ tumour cells on ice for an hour. #901-IgG was used as a negative control at the same dose. After washing, a secondary PE-conjugated goat anti-human IgG, Fcγ fragment specific (1:100, Jackson ImmunoResearch) was added for another 30 min incubation. Staining was analyzed on a FACSCalibur (BD Biosciences). ROR2 (full length) antibody binding towards multiple cancer cell lines were compared with Rituxan and Herceptin antibodies. The cancer cell lines were derived from breast cancer, colorectal cancer, mesothelioma, hepatocellular carcinoma, ovarian cancer, osteosarcoma, neuroblastoma, etc. ROR2 #90 antibody could recognize most of the tumour cells tested, and in some cases, the binding intensity was higher than Herceptin (see Tables 8 to 10).

[2] = target: T1, human ROR2 expressed on the cell surface; assay: flow cytometry, OCM1 cells (melanoma); set-up: unit not given here
Procedure: as §1

[3] = target: T1, human ROR2 expressed on the cell surface; assay: flow cytometry, NMB7 cells (neuroblastoma); set-up: unit not given here
Procedure: as §1

[4] = target: T1, human ROR2 expressed on the cell surface; assay: flow cytometry, SKES-1 cells (EW/PNET); set-up: unit not given here
Procedure: as §1

[5] = target: T1, human ROR2 expressed on the cell surface; assay: flow cytometry, IMR32 cells (neuroblastoma); set-up: unit not given here
Procedure: as §1

[6] = target: T1, human ROR2 expressed on the cell surface; assay: flow cytometry, BE(2)S cells (neuroblastoma); set-up: unit not given here
Procedure: as §1

[7] = target: T1, human ROR2 expressed on the cell surface; assay: flow cytometry, TC32 cells (EW/PNET); set-up: unit not given here
Procedure: as §1

[8] = target: T1, human ROR2 expressed on the cell surface; assay: flow cytometry, HTB63 cells (melanoma); set-up: unit not given here
Procedure: as §1

[9] = target: T1, human ROR2 expressed on the cell surface; assay: flow cytometry, SKNSH cells (neuroblastoma); set-up: unit not given here
Procedure: as §1

[10] = target: T1, human ROR2 expressed on the cell surface; assay: flow cytometry, H69 cells (SCLC); set-up: unit not given here
Procedure: as §1

[11] = target: T1, human ROR2 expressed on the cell surface; assay: flow cytometry, HTB27 cells (breast CA); set-up: unit not given here
Procedure: as §1

[12] = target: T1, human ROR2 expressed on the cell surface; assay: flow cytometry, H345 cells (SCLC); set-up: unit not given here
Procedure: as §1

[13] = target: T1, human ROR2 expressed on the cell surface; assay: flow cytometry, MCF7-Luc cells (breast CA); set-up: unit not given here
Procedure: as §1

[14] = target: T1, human ROR2 expressed on the cell surface; assay: flow cytometry, HEP G2 cells (HCC); set-up: unit not given here
Procedure: as §1

[15] = target: T1, human ROR2 expressed on the cell surface; assay: flow cytometry, COLO 205 cells (CRC); set-up: unit not given here
Procedure: as §1

[16] = target: T1, human ROR2 expressed on the cell surface; assay: flow cytometry, OVCAR3 cells (ovarian CA); set-up: unit not given here
Procedure: as §1

[17] = target: T1, human ROR2 expressed on the cell surface; assay: flow cytometry, CRL1427 cells (osteosarcoma); set-up: unit not given here
Procedure: as §1

[18] = target: T1, human ROR2 expressed on the cell surface; assay: flow cytometry, NCI-H2052 cells (mesothelioma); set-up: reference not given here
Procedure: as §1

[19] = target: T1, human ROR2 expressed on the cell surface; assay: flow cytometry, M14 cells (melanoma); set-up: reference not given here
Procedure: as §1

[20] = target: T1, human ROR2 expressed on the cell surface; assay: flow cytometry, RG187 cells (osteosarcoma); set-up: unit not given here
Procedure: as §1

[21] = target: T1, human ROR2 expressed on the cell surface; assay: flow cytometry, AU565 cells (breast CA); set-up: unit not given here
Procedure: as §1

[22] = target: T1, human ROR2 expressed on the cell surface; assay: flow cytometry, SKNJB cells (neuroblastoma); set-up: unit not given here
Procedure: as §1

[23] = target: T1, human ROR2 expressed on the cell surface; assay: flow cytometry, CHP100 cells (EW/PNET); set-up: unit not given here
Procedure: as §1

[24] = target: T1, human ROR2 expressed on the cell surface; assay: flow cytometry, OUMS 27 cells (chondrosarcoma); set-up: unit not given here
Procedure: as §1

[25] = target: T1, human ROR2 expressed on the cell surface; assay: flow cytometry, BE(1)N cells (neuroblastoma); set-up: unit not given here
Procedure: as §1

[26] = target: T1, human ROR2 expressed on the cell surface; assay: flow cytometry, LAN-1 cells (neuroblastoma); set-up: unit not given here
Procedure: as §1

[27] = target: T1, human ROR2 expressed on the cell surface; assay: flow cytometry, HTB26 (MDA-MB-231) cells (breast CA); set-up: unit not given here
Procedure: as §1

[28] = target: T1, human ROR2 expressed on the cell surface; assay: flow cytometry, SKMEL28 cells (melanoma); set-up: reference not given here
Procedure: as §1

| Binder | binding intensity [1] | binding intensity [2] | binding intensity [3] | binding intensity [4] | binding intensity [5] | binding intensity [6] | binding intensity [7] | binding intensity [8] | binding intensity [9] | binding intensity [10] | binding intensity [11] | binding intensity [12] | binding intensity [13] | binding intensity [14] | binding intensity [15] | binding intensity [16] | binding intensity [17] | binding intensity [18] | binding intensity [19] | binding intensity [20] | further results |
| --- | --- | --- | --- | --- | --- | --- | --- | --- | --- | --- | --- | --- | --- | --- | --- | --- | --- | --- | --- | --- | --- |
| B1 | 84 | 3 | 33 | 5 | 29 | 26 | 4 | 5 | 113 | 9 | 7 | 36 | 39 | 4 | 4 | 4 | 4 | 8 | 4 | 4 | binding intensity [21]: 4; binding intensity [22]: 199; binding intensity [23]: 7; binding intensity [24]: 6; binding intensity [25]: 279; binding intensity [26]: 37; binding intensity [27]: 4; binding intensity [28]: 4 |
| B2 | 69 | 6 | 23 | 12 | 16 | 21 | 20 | 8 | 8 | 24 | 11 | 26 | 74 | 11 | 7 | 7 | 11 | 46 | 5 | 19 | binding intensity [21]: 8; binding intensity [22]: 141; binding intensity [23]: 18; binding intensity [24]: 48; binding intensity [25]: 244; binding intensity [26]: 28; binding intensity [27]: 7; binding intensity [28]: 8 |
| B3 | 77 | 10 | 35 | 22 | 24 | 26 | 37 | 16 | 170 | 9 | 58 | 34 | 111 | 30 | 26 | 35 | 30 | 65 | 9 | 44 | binding intensity [21]: 102; binding intensity [22]: 182; binding intensity [23]: 30; binding intensity [24]: 71; binding intensity [25]: 273; binding intensity [26]: 34; binding intensity [27]: 11; binding intensity [28]: 20 |
| B4 | 126 | 19 | 58 | 12 | 50 | 58 | 17 | 16 | 141 | 131 | 24 | 49 | 42 | 36 | 24 | 22 | 54 | 43 | 12 | 29 | binding intensity [21]: 83; binding intensity [22]: 238; binding intensity [23]: 16; binding intensity [24]: 53; binding intensity [25]: 352; binding intensity [26]: 68; binding intensity [27]: 23; binding intensity [28]: 20 |
